According to a protein production outcome set (Wang et al. 2014):

Test: label from the status in PepcDB records
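Also: failed if final PepcDB status was selected cloned or expressed and not failed if soluble or beyond.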

| Sequence | protein production |
| --- | --- |
| MVLFHLIKKESLQIFRNRTALLMMVIFPILMIVILSFAFKSSFNTATTVPKLTIRYQLEGEKTDYQKNFLAFLKVLNQKLHLETKPSNSLEKDRQRVSEGALTAVLEVKKNQTIKVITNNINQQNADLINMLVKNYVDNAKTYDSIAALYPQQLNHIRKRSVDYVKVSSIQTSKGMTSADYYAISMFTMITFYSMMSAMNLVLSDRQQRITNRIHLTGVSPSFLVFGKLIGAMLATTVQLSLLYIFTRFVLRVNWGTNEWMLIGITASLVYLSVAIGIGLGISIKNEAFLTVASNTIIPIFAFLGGSYVPLTTLHSSIINQLSNISPIKWVNDSLFYLIFGGQYNPIPVTLIVNISIGTIFIILALIGMRKQVTT | failed |
| IFIGNLDPEIDEKLLYDTFSAFGVILQTPKIMRDPDTGNSKGYAFINFASFDASDAAIEAMNGQYLCNRPITVSYAFKKDSKG | not failed |
| MAKHLGESKQKLLQLMALSCPIRLNNAPRRLAKQARSQRIKRNISKGPGMSLSRCLSGLSNLLHYRREWLRADLRAGLSVAAIQIPIAIAYAQIVGLPPQYGLYACVLPMIVYALIGSSRQLMVGPDAATCAMLGGAVAPLAMGDLQRTVELSMIVTVLVGLMLIAAGIARAGFIASFFSRPILIGYLNGIGLSLIAGQMGKVVGFKIEGDGFILGLADFLQRLGEIHGLTLAVGLASLGLLIWLPRRYPRVPAALLTVALFTLLAGLLGFDRLGVAILGHVPAGMPELSWPKTTLEESKSLLRDALGIATVSFCSAMLTARSFAARHGYAINANHEFIALGLSNLAAGASQGFAISGADSRTAVNDMAGGKSQLVGIIAALAIALILLFFTAPMAWIPQPALGAVLLMAGWGLLDVKSLKQIYRLSRFEFWLCLLTTVSVLGLGVLPGIMFAVTLAILRLLYSIYQPTDAVLGWMPGIEGQVDIRQYPQARTVPGLVVYRFDDAILFFNADYFKMRLLDTVQRESQPEVVLFDAEAVTDIDVSGIAVLREIRETLAAQGIYFAIARARGTFLAMLERSGMTREMDSQLLFGSVRSGIRTYRIWRNSMRGKQ | failed |
| MPKVEIAPSEIKIPDNVLKAKLGFGGAEEIPEEFRKTVNRAYEELLDAAKPVVLWRDFEVDGSLSFDDMRLTGELATKHLSGSKIITVFLATLGKKVDEKIEEYFRKGEDLLAFFIDGIASEMVEYALRKVDAELRMKRSNLEGSFRISPGYGDLPLSLNKKIAEIFKEEVDVNVIEDSYVLVPRKTITAFVGWREKNEKQT | not failed |
| MGKSDFIKVNVSNSHNDAVAFEVKLAKDLTVAQLKTKLEILTGGCAGTMKVQVFKGDTCVSTMDNNDAQLGYYANSDGLRLHVVDS | not failed |
| MAKGGFPGFGGNINNLVKQAQKMQRDMERVQEELKEKTVEASAGGGAVTVVATGRKDIKEITIKPEVVDPDDVEMLQDLILAAVNEALRKADEMVTAEISKITGGLGGIPGLF | not failed |
| MSNTVRAISPDITLFNKTLTFQEISQNTREAVIYIHGGAWNDPENTPNDFNQLANTIKSMDTESTVCQYSIEYRLSPEITNPRNLYDAVSNITRLVKEKGLTNINMVGHSVGATFIWQILAALKDPQEKMSEAQLQMLGLLQIVKRVFLLDGIYSLKELLVEYPEYDCFTRLAFPDGIQMYEEEPSRVMPYVKKALSRFSIDMHLVHSYSDELLTLRQTNCLISCLQDYQLSFKLYLDDLGLHNDVYKNGKVAKYIFDNIC | not failed |
| MFVEVFIVGLLAGMSPGPDFFIVMKNSLGFGARVGILTSLGIASALIVHITYTVLGFAFLIETYPALFFTIQLLGAAYLIWLGFHAIRSSPPKKEEAEIEETQPIQSTKDSKSSIQGFKEGFITNLLNPKAALFFLSIFSQFITPQTADWVRWMYGLEVVVAVGLWFSFLAIFISYKHFRRFYQTHSYWFDRFLGAALLFFAIRIIIGAF | failed |
| MMSGLVYRKRRRQNMTALERSWFEEAQQSMHGWDFSHLAGRWQTADLPWDYAALVREHLSADDRWLDIDTGGGELMGRFNPQPALTAVTEGWQPNIELLKQTVVKKGITLYPDAAEQLTAVPNSTFDIVTNSHGAMPVKRIAEVLKPGGRFVTQQVGATNNYALSRFFDEHYETAYPDNQLLTVMAQMQAAGFEILRAEQAYAALSFTDVGAIVYYATVIPWEFPHFDVARMLPKLHQLQSLLAINGRVTTFEDRFMIIARKLARRD | failed |
| MTESNFDLPIISVIIPAYNCEKTIKKTIDSVLDQSFTDFELIVINDGSQDATLDIVSQIEDSRIKIFSFENAGGNVSRNRGLNLAVGKFISFLDADDIWTPNKLESQLEALHNNPGFHVAYSWTDYIDEDGNFLISGRRVTLNGDVYKKLFINNFLENGSNPLICKEALIALGGFDESLKAAQDWDMWLRLANKYSFVAVPYVQILYRVSSNSLSSNLVRQEKACKQVLEKAYQARPAIGNHILHLSIANLYKYLACKALQKPYSRSKGLAAVKFIWQYFLYDSSRMRRINSTLKLLFKALIIIILPAGLSTELLAKMRTKSLNPQLSAISGS | failed |
| VTGDRAGGRSWCLRRVGMSAGWLLLEDGCEVTVGRGFGVTYQLVSKICPLMISRNHCVLKQNPEGQWTIMDNKSLNGVWLNRARLEPLRVYSIHQGDYIQLGVPLENKENAEYEYEVTEEDWETIYPCLSPK | not failed |
| MNVFARSSVLAAEMIDVFDRTHTEKELVFQSKELCRDFIHSRITREGLSWSKVELDLPEPRGVLVDVSVVLLKLGDELECMRPYVYRNIAKQLNISVSVEAVVSDAFLSVATEVIAMGITWGKVVAIYAVAAGLAVDCVRLGHPVMVHTIVDSLGEFVRRSLVPWLKKRGGWVDILKCVVNMDSRAHVHWLSTAVLTWREFIKTMYVYLTK | failed |
| MSLAADKVDILYLEDDEVDIQSVERVFHKISSLIKIEIAKSGNQALDMLYGRNKENKIHPKLILLDINIPKMNGIEFLKELRDDSSFTDIEVFVLTAAYTSKDKLAFESLNIRGHLIKPLDYGEAIKLFWILQSMEGHHHHHH | not failed |
| MSKPAITLWSDAHFFSPYVLSAWVALQEKGLSFHIKTIDLDSGEHLQPTWQGYGQTRRVPLLQIDDFELSESSAIAEYLEDRFAPPTWERIYPLDLENRARARQIQAWLRSDLMPIREERPTDVVFAGAKKAPLTAEGKASAEKLFAMAEHLLVLGQPNLFGEWCIADTDLALMINRLVLHGDEVPERLVDYATFQWQRASVQRFIALSAKQSG | not failed |
| MQGQNQQQAYDRGITIFSPDGRLYQVEYAREAVKRGTASIGVRTSDGVVLAVDKRIRSPLMERSSVEKIHKADDHIGIASAGHVADARQLIDFARRQAQVNQLRYGEPVGVETLTKEITDYIQQYTQVGGARPFGVALIIGGIVNGEPRLFETDPSGTPYEWKALAVGADRGDIRDYLEEHYDEGMDLDEGVDLALAALASVNDDELSPEGIGVATVDVETETFGQLTDEEKEAHLAEADLLDTGEDADDEAEDEDATEE | failed |
| MAICESGALPSHVGALSYSGGAASSFFGRRNADGLNDKWLALRDAFRAAGGDLLAIEDARSAALDFVIHVNAHRLRHDVPAFVILAESEFIHPPNVDWRMLQQYKGIFTWMPDLVRRGIGTEICLAHPLGAGVVDGYQERPQLLVMIASNKALPVWRPAVDLYRERVRAIRWFEKHAPQAFALYGHDWDKSPRLPTPLGGIVHGVEFVLPWRLQWFPSWKGVIPSKREVLRHARFSLCYENVRGLRGYITEKIFDAFCAGNVPVYWGAEDITDYIPADCFIDRRAFGDYADLYRYLTSMPETRYIQYQQAICDFLVSPAAKRFSSEIFATTIVGKVLDTLGRRDELEHHHHHH | failed |
| ELEHQISGTSKEALLDDIRSLIDSASYTYIRQREMKGLGHAILTGRELVGDEPFAVVLADDLCVNEEQGVLAQMVELYKQFRCSIVAVQEVPETETHKYGVIAGEMIKDDIFRIDNMVEKPEPGTAPSNLAIIGRYILTPDIFELIENTEPGKGGEIQITDALMQQAQSGCVIAYKFKGQRFDCGSVEGYIEATNYCYENLYKKASSAELAKTPTVKVSEPA | failed |
| MSRPSVNRSGEMEIFAKAVELGGFSAAARHYRMTPSAVSKLVLRLEERLGVRLVNRSTRKLQLTPEGHAFYERTVRILADIDEAERSASAGESPVGRVRLNVNASFGTHVLMPLVPEFRAHFPAVSLDIVMTDAVVDLMEARADVAIRAGPLKSSTLIARKLGATRMMIVAAPSYIERYGMPSSLEELKGHERLGFCYARAVDGWPLRTDGETVVLPASGAVQVSDGEGLRQLALAGAGLARLAEFTVREDVSARRLVPVLEDLNPGDLEEVHAVYLGQGGALPARVRAVLDFLARHARITPGQDAGRRRTSPIPAPA | failed |
| MTGSQETRITILDAMTANQIAAGEVVERPASVVKELVENSLDAAARHITVEIEGGGLQLIRVRDDGRGIEPEDAPLAFARHATSKIRRAADLARITTLGFRGEALASIAAVARVEMATRPPGRPGGTLVRVAGGKPPEVTETGCPPGTSVTVKDLFYNTPARRQYLKKPSTEARAIVATVERLALGHPGVAFSLSLDGRRSLATPGNGDLQAVLAALYGLEIGRELLPFNGSGAGWSLHGFTSPPWLHRSNRDQQVLLINGRYITNRLLTWAIESCYRNVIPAGRHPLFVLHLAVDPGEVDVNVHPAKLEVRLQREQDLARQVTNLVKGALFTPRAVAPATISRSGDRKGAGSAPPVQQGFTFREPDKQARYWGEYVLRERARENREPEWPEKTGENTGAIKTREVPEGNGPVERDKPDPIGPETPAEETGKQVLPPLRALGQVFNTYILAGGEDGLYIIDQHAAHERCRYEALVKEGTPGSHPAQMLEPPLPLHLAPDMQVKLIDQIITLRELGFIIEEFGTGVFLLRSVPLGIPPGKEREVLEDFLAESTLPAPERLLKLIACHGAIKAGQSLAGAEMQKLLDDLRGVDHPYTCPHGRPAVVRLDEAQLARYFHRHLK | failed |
| MAPDLSGTWYVLEGDPGEHLVVEALGERLSGIWTSRELAEAFLAHHPHLGMRVSALESRALKEAYLRALGMLQVEAVMVDYRPGTHRAQVARVKDLLEEVRRA | not failed |
| LTVTVTHSNEKHDLHVTSQQGSSEPVVQDLAQVVEEVIGVPQSFQKLIFKGKSLKEMETPLSALGIQDGCRVMLIGKKN | not failed |
| DPREVAGGYVEKLCARYGLADVRVVQSPAMGRGLTGELGNAGAALLEEVVKDGMTVGVSWGDTMLAVSEHLRTLPLVDVKVVQLKGGHSHTARNTNDMVTLTRFSRALNAEMMMLPLPVILDSKEAKELVVKDRHIASMLNLGAHCDVAVFTVGAVKSESLLLNLGYLSPSEQARLMEHAVGDVCSRFYDAQGEVADPDIDARTVGISLADLKKRPVRVLVAGGLEKAPAIEAALRTGVATHVVIDHATAQRVVEMA | failed |
| DGENYFIVDAHVALWDARRENQRNIHGKQFIDCFYDYHRNLSPASELWPYEDFLYQGGERLMKDLFTDGYVDHAIFQPAHLGAFYNTGFGQTEEAFALTRKHPGMLTYNHCFDPRFEEAGLKQLREDAARFGLKGVKLYTAEWKGDSRGYKLSDPWTYRYLDACRELGIKNIHVHKGPTIRPLDRDAFDVADVDAAASDFTDLNFVVEHCGLPRLEDFCWIATQEPNVHAGLAVAIPFMHTRPRYFAQIIGELLYWLDEDRIQFSSDYALWTPRWIVEQFVDFRIPDDMTGEYPQLTVAQKKKILGLNAAAMYDI | failed |
| MLDAKTSTLLWAAETFTLAVLLGTLWLHRPSRRHNLYFAAGFLATGFGTVMVALRGDISSFLSIQVGNTLALSAFGFWLAGLLSLEQRKLGGWIAIPALLWIAGMFVPSVPEDMVARILLYHASAATGYFMLAGVLLGSRARASRSRKVLATILILQAFAGAIVASIVIPANAAVPNAIPMTSALSISGMLGFTAIIMISAKIIMEDTEIRLHRLAMTDHLTGVLNRRGLLEEFEHIKKRSHGSDRYVALVLFDIDHFKKINDRYGHQSGDAVLVHFCNIAQRVIGERGLFVRMGGEEFALVAEVESPSSTVTLAEAIRSNLRLSKITARNEAIKVTTSVGISEAMIKDADLSVMMTEADRALYAAKKAGRNRTVIHVNSANVVVPAPDRDENPMDNNADRQVAALNRISAIASR | failed |
